This assay deals with protein kinase CK2 catalytic subunit α (human) (UniProt P68400).

A word on the Kd: it is the constant that tells how readily two partners part at equilibrium. The low end stands for tighter binding, the high end for weaker binding.

β-peptide(181–203), sequence (P67870 181-203): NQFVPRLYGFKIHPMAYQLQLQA
protein kinase CK2 catalytic subunit α (human), sequence (P68400 whole entry): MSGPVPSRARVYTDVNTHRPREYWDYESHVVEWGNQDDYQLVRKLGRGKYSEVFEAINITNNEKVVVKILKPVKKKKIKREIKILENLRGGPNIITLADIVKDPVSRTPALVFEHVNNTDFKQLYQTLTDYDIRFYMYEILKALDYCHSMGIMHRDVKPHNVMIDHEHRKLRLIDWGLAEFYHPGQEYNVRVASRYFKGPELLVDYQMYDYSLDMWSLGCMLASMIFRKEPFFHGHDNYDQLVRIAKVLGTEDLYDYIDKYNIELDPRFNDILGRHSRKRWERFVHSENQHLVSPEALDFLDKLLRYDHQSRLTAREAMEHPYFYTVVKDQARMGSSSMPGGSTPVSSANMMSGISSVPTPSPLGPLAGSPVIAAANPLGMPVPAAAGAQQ

For “β-peptide(181–203) (from UniProt P67870 181-203)”, the Kd turned out to be 8.45 µM.

For the origin of these results see PMC3026963.
